Assay: soluble on expression in E. coli; label from the status in PepcDB or PDB records

Sequence	soluble on expression in E. coli
MDQNTTPAPGLRETKKRETRQLISDHATRLFIERGFEHTTIAEIADAARVAKKTVTNYFPRKEDLALDHQDEFVAALAATVTARGAGETPLTALRHAFLAAVAAQDPVAGFAGQAFTRMIADSPTLTACLRGLHDRREEALTAALAGTTDTPPDDITPRTAAALLGGVHRVLFNRIQELTLAGRATPEIAEVLAREAPRAFDLLTPALAEYGRRP	not soluble
MSLESPISEKKPPVIVQEVEQKPEVVEKENILIEQEKEVIKPLDVPLILQKPELMRGCEVTSLAMVLQFSGVKVDKMELASKIHYVPFQSNGLKGNMHKGFIGDMATFDKPGLGVFVEPILELAKLYVPDEKVMNLSYKEPEHIYEAIDRGLPVWVLTNARFKRLPDNQFYTWRTDTGEMKVTYHQHSVVVTDYDDQYVYINDPLKTDKHRAINRNNFEQSWIQMGRQAMTISIEGHHHHHH	not soluble
MGSDKIHHHHHHMKYDVVVIGAGGAGYHGAFRLAKAKYNVLMADPKGELGGNCLYSGCVPSKTVREVIQTAWRLTNIANVKIPLDFSTVQDRKDYVQELRFKQHKRNMSQYETLTFYKGYVKIKDPTHVIVKTDEGKEIEAETRYMIIASGAETAKLRLPGVEYCLTSDDIFGYKTSFRKLPQDMVIIGAGYIGLEIASIFRLMGVQTHIIEMLDRALITLEDQDIVNTLLSILKLNIKFNSPVTEVKKIKDDEYEVIYSTKDGSKKSIFTNSVVLAAGRRPVIPEGAREIGLSISKTGIVVDETMKTNIPNVFATGDANGLAPYYHAAVRMSIAAANNIMANGMPVDYVDVKSIPVTIYTIPSLSYVGILPSKARKMGIEIVEAEYNMEEDVSAQIYGQKEGVLKLIFERGSMRLIGAWMIGVHSQYLINELGLAVAYGLNAKQLASFAEQHPSTNEIISYTARKVI	not soluble
MGSDKIHHHHHHMRINVEEAIEKLLANQLVAMPTETVYGLAARLTCPGAIKKIFEIKGRSLVNPLIIHVANPIDVCAYAIALPPHFDALTHAFWPGPLTLIVPIQLDLVDSIVRAGLPTAAFRMPSHPLTLHVIRAVGPLVMPSANLSGKPSSTDVKHVEMDFGLDFPVLDGGPCQEGVESTILHYRNSQWEIARLGALSATVFQPILGYEPIYQKIVKNDQIISPGQMFRHYAPQATLFLGDQKQITEADFIVGFTEKSYPVEKRVLYLGSLSNPHEVAENLYAVLRQLDFEKAKIAWVDMDFPSEGLWKTIAERLSRAGEK	not soluble
SLTPLSAITVRSMEGPPTVQQQSPSVIRQSPTQRRKTSTTSSTSRAPPPTNPDASSSSSSFAVPTIHFKESPFYKIQRLIPELVMNVEVTGGRGMCSAKFKLSKADYNLLSNPNSKHRLYLFSGMINPLGSRGNEPIQFPFPNELRCNNVQIKDNIRGFKSKPGTAKPADLTPHLKPYTQQNNVELIYAFTTKEYKLFGYIVEMITPEQLLEKVLQHPKIIKQATLLYLKKTLREDEEMGLTTTSTIMSLQCPISYTRMKYPSKSINCKHLQCFDALWFLHSQLQIPTWQCPVCQIDIALENLAISEFVDDILQNCQKNVEQVELTSDGKWTAILEDDDDSDSDSNDGSRSPEKGTLGEGAAALEHHHHHH	soluble
MNYATTPTAFVESKLNSMPGDALGYLRRLDQRWQALCQGDLPPIAEVAQKVNTNLGEADFDAVICGGTLGILLAASLQIRGWQVVVIERGKLQGRAQEWNISRQELQTFVELELLTSEELETAIASEYNPGRIAFHGGQEFWIKNVLNVGIDPIYLLEKLKQKFLQAGGKLLEHSAFQKAIIHSDGVAISYQHDGENQVERKLTSRLLIDAMGHGSPLVNQARQGEIPDGVCLVVGSCAQGYSDNETGDLIATTTGITNHCQYFWEAFPARDGRTTYLFTYVDVHPERISLEFFFQEYFRLLPEYQKINLDQLQWQRFLSGFFPAYKSSPLHFSWGRVLAVGDSAGSQSPVSFGGFGAMVRHLKRLTNAIGEALAGDYLAAEDLALLQPYQPNIGVTWLFQQTMGVKVGQTADPEQINRLMNAVFAVMDRQGQEVMEPFLQDVIQWSGLTQTLPRVNPLIVLPLLPQIGLPALMEWLGHYANLAGYSLTYPLAKNLLFTNPSFEQKRRLEAWYYGSGYDFHH	not soluble
MTFGEKLLNAASTRGRLCVGIDPHESLLTSWGLPVNVDGLAEFSRACVEAFADTVALVKPQVAFYERFGSAGFAILEETIQTLRERGCLVVSDAKRGDIGSTMAGYASAWLDPASPLSSDAVTVSPYLGFHSLDPVFELAEQHGRGVFVLAATSNPEARELQDQQNADGVSISQQIVDQAAALNAPYMAQGKAGNIGVVIGATLSKPPRLSTLGGAILMPGVGAQGGTASDVDEIAGDMAHLAFPNVSRSILATGPDIAEMKNSVAKNAADFPGFPRS	soluble
MFLKVRAEKRLGNFRLNVDFEMGRDYCVLLGPTGAGKSVFLELIAGIVKPDRGEVRLNGADITPLPPERRGIGFVPQDYALFPHLSVYRNIAYGLRNVERVERDRRVREMAEKLGIAHLLDRKPARLSGGERQRVALARALVIQPRLLLLDEPLSAVDLKTKGVLMEELRFVQREFDVPILHVTHDLIEAAMLADEVAVMLNGRIVEKGKLKELFSAKNGEVAEFLSARNLLLKVSKILD	soluble
NGSQQQILSNISSMGTNTIDVRPGKGFGDRRSGRVKTLTADDAKSLESLPFVDSVTPSLSNSLTVRYANQDATASVEGVGEDYFRVRGYEIAKGQFWDEESVNSLAQEAVIDDNTRKEMFADRNP	not soluble
MALLDKLLTPVMNQYKQPINKCLKVLNKKNNKKTGVAKQNACMDKVWGQALAIITKQFVNKVCTAVAKKMNAKEWNCCKTYVVKVVNVTPYKRFNIVK	not soluble
MQEDTLTSRGNMPYSLNVLIPLSCDLRPPVPQAIHAGRVDHRELGFVHPVSPGDVVAEVLVPAGEHFSPEVAQHLIGEGCALGDASTEHTEGQGVPVVATRSGHLDWDERALAVRDTLVVDEDVTYHVGNIRYFGDLIVRGMVRVAFRVRARSLLVEGLIEGAFIECERLEARGGVKAGGSGRLRVRETVAAPFMENAIVHAGSHVVVSGSSLHNEIKSNASVQVAERLIGGMTAARDSITVGERLGGGMSTLTRVQVGYDPFLNTAVHRLEVQAQHVEEVMLSCAKLAGRGGRLGDKAKARGERYAAALKRLRRKLADLLARLDATSTLETCTIDVRGEVRPGVEICIGPARLMNQDFLKNVRFSYCDGAVVATHPAGRTALEHHHHHH	not soluble
MGFYLTSRIMKNIKSQGNGEQPAISRRHFIQASSALIALPFVSSPATAQARAVTATENRPAEKVVQTCSTFDCGGKCDIRAHVSDGIVTRISTRPDNALDAQMPVMRACVRGRAYRKFVYHPDRLKYPMKRVGKRGEGKFERISWDEATTLIADNLKSITEKYGPASRYVHVGTAVSGGTFSGDKMARRLLNLTGGYLESYHSVSMGNTAAATPYTYGIAASGSSLDTLLDTKLVILWGHNPTETIFGHTNYFLQKMKQNGTRFIVVDPRYSDTVSSLADQWIPLLPTTDNALMDAMMYVIISENLHDRAFIARYAIGFDEDSMPEGVPANESLVAYLTGAKDGVVKSPEWAEKITHVPAQTIRQLARDYANTKPAALIQGWGPQRHNCGERTARGSTLLATITGNVGIKGGWAAGYGGCANRKFAAGPEMPDNPVKAKISVMNWVQAADDASKVTPDMGLKDADKLDSNIRILFSLAGNYLANQNPDLHQAVRVLEDESKIQFIVASDLFMTPSAKYADLLLPETSFMERWNIGETWGTASYLILSEKLIEPEFERRSDYDWLREVAAKLGIENEFSQGRDEKAWIEHIWEQTRLAMPDENLPDFATLQKTRQHLFKSAPFIAFEDNIRDPENHPFPTPSGKIEIFSKRLYDMQHPEIPALSHYVPAHEGPEDALAKDFPLQLITWKGKNRANSTQYANPWLIEVQQQTLWINPQDAQKRGITHGDMVRIHNSRGICEIPAEVTPRIIPGVVAMQAGAWWQPDENGVDKGGCANVLSSARITALAKGNSHQTMLVEVAKA	not soluble
MNRWEKELDKYAELAVKVGVNIQPGQTLFVNAPLEAAPLVRKIAKTAYETGAKHVYVEWNDEALTYIKFHHAPEEAFSEYPMWRARAMEELAEQGAAFLSIYAPNPDLLKDVDPKRIATANKTAAQALANYRSAIMADRNCWSLISVPTPAWAQKVFGDLRDEEAIDKLWEAIFRITRIDHDDPIAAWRKHNDRLARIVDYLNNKQYKQLVYEAPGTNLTVELVDGHVWHGGAATSQSGVRFNPNIPTEEVFTMPHKDGVNGTVRNTKPLNYNGNVIDGFTLTFKDGQVVDFSAEQGYETLKHLLDTDDGARRLGEVALVPHQSPVSLSNLIFYNTLFDENAACHLALGKAYPTNIENGASLSKEELDRRGVNDSLVHVDFMIGSADLNIDGVTKDGKREPIFRSGNWAFELS	not soluble
MFNCLTKLVILVCLKYVAKALLNRSTGLIMKDKPEGVHHIKSCSDSSSRIWYSLWMNIAFCGGLGPTSIFDPCFLTSSAPSPPSAPALAIPAAAPPLPTSVPAGAGVEAGAGAETVSSSLMIFSSFFLYN	soluble
MGHHHHHHSHMVDIDLPEPPKPTPPDQETEEEQRFRALFEQVAGEDMEVTAEELEYVLNAVLQKKKDIKFKKLSLISCKNIISLMDTSGNGKLEFDEFKVFWDKLKQWINLFLRFDADKSGTMSTYELRTALKAAGFQLSSHLLQLIVLRYADEELQLDFDDFLNCLVRLENASRVFQALSTKNKEFIHLNINEFIHLTMNI	soluble
MSQEVEETLKRIQSHKGVVGTIVVNNEGIPVKSTLDNTTTVQYAGLMSQLADKARSVVRDLDPSNDMTFLRVRSKKHEIMVAPDKDFILIVIQNPTD	soluble
GPGSMWVEAYRAGCAEVSADVREDVSSSGATGELIVRGNTFDNFKNRVTDTDVQAILAALRVCPGMSALYLPYNNITSEGGVLLGKALGHQLDSIITLDVQYNSLGAEAGVAIAQGLQRNDSLCHVTLAGNPLGGCCGAALGEALRQNMNLAVLDLFNTDLGMEALVHICRSLEGNKGLSSLNIGRPLLHGVDELESVVNHLSIALQRNSTLEELHMAYFGLVDDCLQTLVLALCGSAVTTLCIKGNKVSQDAGQLLARLLDRRQDFRNLDVSCNRLRDAGAAALAKGVAHHPQLESLGLESCTISERGLVVLVESLKSCATVRRLTLWGNDVTPAVASSLTATFCDLRELDYIDVGVMEQDGQLVAYRA	not soluble
MGSDKIHHHHHHMTVLIKEEDFIQSIADGIQFISYYHPVDYIRHLARAYEREESPAARDAMAQILTNSRMCAEGKRPLCQDTGIVNVFLKVGMNVRFDTQRTLQELCDEGVRRGYLNPDNPLRASVLDDPLFARKNTRDNTPCILHVELVPGDTVDVQVASKGGGSENKSKFVMLNPSDSLVDWVLKTVPTMGAGWCPPGMLGIGVGGTAEKAMLMAKQSLMEDIDMYELLARGPQSKLEELRIELYEKVNALGIGAQGLGGLTTVLDVKISTFPTHAASKPVAMIPNCAATRHAHFVLDGSGPARLDPPSLSEWPEVHWAPDYNKSRQVDLDTLTKEEVASWKPGQTLLLSGKMLTGRDAAHKRIQDMLSKGESLPVDFTNRVIYYVGPVDPVRDEVVGPAGPTTATRMDKFTDMMLAQTGLISMIGKSERGPVAIESIRKHGSAYLMAVGGAAYLVSKAIRNAKVLAFEDLGMEAIYEFDVKDMPVTVAVDSQGTSVHTTGPKEWQARIGKIPVAVA	not soluble
MAPATQRNRETIAAVLQEYLPSQGSILEIASGTGEHACFFAPLFSPRWWITSDPDPLCRESIMAWRDHQALANFQSPLDLDVNDQVWPVEREILREPVTSIVAINLIHISPWESCLGLLTGAERILPEGGILYLYGPYRQKGVPTAPSNEAFDQSLQSRNPAWGLRQLEDVIGEAGKRNLHNQAIIPMPANNLSVIFQKGLEHHHHHH	soluble
MTELEAAMGMIIDVFSRYSGSEGSTQTLTKGELKVLMEKELPGFLQSGKDKDAVDKLLKDLDANGDAQVDFSEFIVFVAAITSASHKYFEKTGLK	soluble
